As usually defined, the Kd is the constant that tells how readily two partners part at equilibrium.

For one experiment, the target named is REV7^K129A (human) (UniProt Q9UI95). As to the kind of experiment: ITC; in the context of MBP-SHLD2(1-60) (Supplementary Fig. 5a, b). A general note: Isothermal titration calorimetry measures the heat released or taken up as one component is titrated into another.
For the next experiment, the target named is MBP-SHLD2(1–60) (human) (UniProt Q86V20). As to the kind of experiment: ITC; ITC200, 25 °C, 20 mM Tris pH 8.0, 150 mM NaCl, 1% glycerol, 1 mM TCEP; one set of sites model.
MBP-SHLD2(1–60) (human), sequence (Q86V20 1-60): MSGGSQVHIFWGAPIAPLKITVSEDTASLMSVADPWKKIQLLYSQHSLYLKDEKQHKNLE

REV7^K129A (human), sequence (Q9UI95 whole entry K129A): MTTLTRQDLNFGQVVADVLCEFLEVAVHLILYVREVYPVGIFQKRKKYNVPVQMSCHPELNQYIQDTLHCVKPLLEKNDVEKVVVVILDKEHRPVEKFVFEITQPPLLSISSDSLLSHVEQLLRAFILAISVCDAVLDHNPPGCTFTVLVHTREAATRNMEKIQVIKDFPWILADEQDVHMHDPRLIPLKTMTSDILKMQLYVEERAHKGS

As for “REV7^K129A-SHLD3(1–82) (from UniProt Q9UI95 1-211; Q6ZNX1 1-82) (complex)”, the Kd with REV7^K129A (human) was 410 nM.
In the experiment with MBP-SHLD2(1–60) (human), “REV7^W171A-SHLD3(1–82) (from UniProt Q9UI95 1-211; Q6ZNX1 1-82) (complex)” registered a Kd of 59 nM.
On the same count and under the same terms, in the case of “REV7^Y63A-SHLD3(1–82) (from UniProt Q9UI95 1-211; Q6ZNX1 1-82) (complex)” it was 600 nM.

Values taken from paper PMC7181697.
